Experimental data taken from patent US10501502B2, “Allophycocyanin alpha-subunit evolved labeling proteins (smURFPs)” (The Regents of the University of California, priority 2016, dated 2019).

Key:
[1] = system: HEK293A cells; test: Fluorescence imaging of FPs in HEK293A cells with chromophore addition or HO-1 expression; assay type: cell-based; conditions: smURFP/TDsmURFP in HEK293A cells
Source text: smURFP codons were optimized for human cell expression, and the gene was created by GenScript. smURFP, TDsmURFP (created from mammalian-optimized smURFP), IFP1.4 (mammalian-optimized form^35), IFP2.0 (mammalian-optimized form^46), and iRFP713 (mammalian-optimized form^36) were PCR amplified using Phusion High-Fidelity DNA Polymerase (NEB) with primers containing 5′ HindIII and 3′ XhoI restriction enzyme sites. HindIII-HF and XhoI (NEB)-digested PCR fragments were gel purified (Zymoclean Gel DNA Recovery Kit) and were ligated (T4 DNA Ligase, Life Technologies) into a similarly digested pCDNA3-IRES-eGFP vector (bicistronic to express two FPs in the same cell). For creation of HO-1-expressing mammalian vec-tors, the Synechocystis HO-1 was used, and the codons were not optimized for mammalian expression. Synechocystis HO-1 was directly amplified from the pBAD vector using primers containing 5′ BsiWI and 3′ XbaI restriction enzyme sites. pCDNA3 smURFP, TDsmURFP, IFP1.4, IFP2.0, or iRFP713-IRES-eGFP vectors were digested with BsiWI and XbaI (NEB), dephosphorylated (SAP, Roche), gel purified (Zymoclean Gel DNA Recovery Kit), and ligated (T4 DNA Ligase, Life Technologies) with similarly digested, purified HO-1 PCR fragment. For creation of smURFP fusions, smURFP was PCR amplified using Phusion High-Fidelity DNA Polymerase (NEB) with primers containing 5′ AgeI and 3′ NotI restriction enzyme sites for N-terminal fusions or with primers containing 5′ AgeI and 3′ BspEI restriction enzyme sites for C-terminal fusions. mGeos2-VEL-ManII-N-10 (Addgene 57551) and Dronpa-PDHA1-N-10 (Addgene 57292) vectors were digested with AgeI and NotI (NEB) and mCherry-αTubulin-C-18 (Addgene 55148) and tdTomato-LaminB1-10 (Addgene 58107) were digested with AgeI and BspEI, dephosphorylated (SAP, Roche), gel purified (Zymoclean Gel DNA Recovery Kit), and ligated (T4 DNA Ligase, Life Technologies) with similarly digested, purified smURFP PCR fragment. HEK293A (Invitrogen, Life Technologies), HT1080 (ATCC), and PC3 (ATCC) cells were grown in Dulbecco's Modified Eagle's medium (DMEM, Corning), supplemented with 10% FBS (Atlanta Biologicals)+1×penicillin—streptomycin (Fisher Scientific), which is referred to as growth media, on poly-D-lysine-coated glass-bottom culture dishes (MatTek, No. P35G-0-14-C). The HEK cell line is listed in the ICLAC and NCBI biosample databases and is commonly misidentified as the HeLa cell line. For expression of exogenous fluorescent proteins, there is no problem if there is a contaminating cell line because no endogenous biology or therapeutic results are being determined. HEK293A cells were purchased from Invitrogen (Life Technologies), and all experiments are derived from the same expanded frozen stock without cell line authentication or mycoplasma detection. Cells were transfected using 2 μg of circular DNA+5 μl Lipofectamine 2000 (Life Technologies) in 2 ml Opti-MEM (Life Technologies) for 4-5 h, transfection media was discarded, and prewarmed growth media was added. Chromophores (5 mM in DMSO) were added at indicated concentrations to growth media, warmed for 10-15 min at 37° C., and added to cells. For multiple timepoints, incubations were staggered to maintain equivalent incubation. Prior to imaging, cells were washed 1×2 ml growth media, 2×2 ml imaging solution, and imaged in 2 ml imaging solution. Fluorescence imaging was performed on a Zeiss Axiovert 200M inverted microscope controlled by SlideBook software. FPs were imaged with the following settings: eGFP, EX/EM=495(10)/535(25) nm, tdTomato EX/EM=540(25)/595(50) nm; mCherry and mCardinal, EX/EM=580(20)/653(95) nm; smURFP and TDsmURFP, EX/EX=628(40)/680(30) nm; and IFP1.4, IFP2.0, and iRFP713, EX/EM=665(45)/725(50) nm. […]

[2] = FP purification and fluorescence characterization in vitro (spectra, extinction coefficient, quantum yield); assay type: physicochemical; conditions: for Molecular Brightnes Relative to smURFP / Emission Maximum / Excitation Maximum / Extinction Coefficient / Quantum Yield: Table 4; for Emission Maximum / Excitation Maximum / Extinction Coefficient / Quantum Yield: evolved APCα FPs
Experimental: FP genes were expressed on a pBAD vector (Life Technologies) with a polyhistidine tag on the C terminus, cells were lysed with B-PER (Thermo Scientific), and purified using Ni-NTA (Qiagen) puri-fication. PCB (HO-1+PcyA) and BV (HO-1) incorporation in Escherichia coli was performed simultaneously during constitu-tively active FP expression. Extinction coefficient was determined by PCB or BV absorbance as described35,36 (Table 3, smURFP+BV and TDsmURFP+BV, and Table 2) or calculated for the apoproteins by determining the protein concentration by the BCA protein assay (Pierce), and a specific chromo-phore concentration was added (specified in the Purification of FP lacking chromophore and in vitro chromophore incorporation section) to get 1 and 2 chromophore species (Table 5, not including (Escherichia coli)). When FP chromophore (PCB or BV) was expressed in Escherichia coli, the PCB and BV Q band had absorbance that overlapped with detection of BCA or Bradford assay of 562 nm and 592 nm, respectively. We used the previously published protocols35,36, where there was no change of the BV absorbance at 390 nm when free in solution or attached to the FP. smURFP+BV denaturation with 1 M urea caused no change in the BV absorbance at 390 nm, but the Q band was reduced ˜20-fold. Therefore, the extinction coefficient of BV at 390 nm was used to calculate the concentration of holoprotein (FP+PCB or BV) concentration.
EX and EM spectra were obtained using SPEX Fluorolog fluorometer (Horiba). Absorbance spectra were obtained using UV-VIS Spectrophotometer Cary Eclipse (Varian) or UV-2700 (Shimadzu). Quantum yield was determined relative to Cy5. Incorporation rates of BV on 0.5 μM smURFP was performed by addition of smURFP to PBS alone or with 20% fetal bovine serum (FBS) and mixed by pipetting in a quartz cuvette. Chromophore was added last, mixed by pipetting, and fluorescence was recorded using SPEX Fluorolog fluorometer (Horiba). Photobleaching was characterized on bubbles of purified FP or Cy5 within mineral oil using light from a 150 W xenon arc lamp with 100% light through EX/EM=628(40)/680(30) nm for smURFP, TDsmURFP, and Cy5 or EX/EM=665 (45)/725 (50) nm for IFP 1.4 focused with a 40×, 1.2 numerical aperture C-Apochromat oil-immersion lens on a Zeiss Axiovert 200M inverted microscope. Photobleaching times were normalized to reflect an initial illumination intensity producing 1,000 photons per fluorescent molecule per second as previously described^37.
HO-1 was removed by digesting the pBAD vector (Life Technology) with MscI and PmeI (NEB). smURFP and TDsmURFP were expressed and purified as described above. No chromophore was present on smURFP and TDsmURFP (confirmed by UV, fluorescence imaging, and MS). For predominant fluorescent species+2 chromophores, a ten-fold excess of chromophore was added to smURFP and TDsmURFP. For predominant fluorescent species+1 chromophore, a quarter concentration of chromophore was added to smURFP and TDsmURFP. Chromophore was added in PBS+10% FBS at 37° C. overnight. smURFP+chromophore and TDsmURFP+chromophore were purified using NiNTA (Qiagen) to remove excess or noncovalently attached chromophore.

[3] = system: Escherichia coli; test: Fluorescence of FPs expressed in Escherichia coli; assay type: cell-based
Experimental: TeAPCα gene (codons optimized for Escherichia coli) was made by GenScript. Mutations were placed by random mutagenesis using GeneMorphII Random Mutagenesis Kit (Agilent Technologies). Screens for mutants that fluoresce with PCB or BV were performed by subcloning into a pBAD vector (Life Technologies) that expressed cyanobacteria Synechocystis HO-1 and Synechocystis PcyA genes for PCB production and Synechocystis HO-1 only for BV production, as previously described^34. Libraries were expressed in TOP 10 Electrocompetent Escherichia coli cells (Life Technologies) with addition of 0.2% arabinose to LB agar plates (FPs were constitutively expressed in Escherichia coli). Fluorescence was imaged on plates using a BioSpectrum AC Imaging System (UVP) with EX/EM=628(40)/690(50) nm for FPs+PCB, EX/EM=685(40)/710LP nm for rounds 4 and 5 FPs+BV, and EX/EM=650(13)/690(50) nm for Cy5-like FPs+BV (rounds 6-12). At round 6, 5-10 of the brightest colonies on each plate were combined in LB+0.2% arabinose, grown ˜18 h, mixture of plasmid DNA was purified, and TOP10 cells were transformed and plated on LB agar plates+0.2% arabinose. Fluorescence was screened on plates (as described above), 10-20 of the brightest colonies were screened in liquid culture fluorescence (FIG. 7a-e), plasmid DNA was purified, and DNA was sequenced. The plasmid DNA of 2-3 of the brightest FPs was chosen for mutagenesis for the subsequent round. When choosing DNA for subsequent mutagenesis rounds, genes with increased and/or novel silent DNA mutations were chosen over other DNA that had the same DNA and/or protein sequence of the previous round. Site-specific mutagenesis was performed using QuikChange Lightning Mutagenesis Kit (Agilent Technologies) to create smURFP (C4S mutation) and smURFP C52S.

Molecule	chromophore concentration reaching saturation of fluorescence [1]	chromophore concentration required for fluorescence similar to 2.5 μM BVMe2 [1]	extinction coefficient (EC) [2]	quantum yield (QY) [2]	red-shift of excitation and emission relative to R3-2+PCB [2]	Molecular Brightnes Relative to smURFP [2]	Emission Maximum [2]	Excitation Maximum [2]	Extinction Coefficient [2]	Quantum Yield [2]	fluorescence when expressed in E. coli (qualitative) [3]	fold brighter than R1+PCB ([3]; expressed in E. coli)
C=CC1=C(C)/C(=C/C2=NC(=C\c3[nH]c(/C=C4/NC(=O)C(C)=C4C=C)c(C)c3CCC(=O)OC)/C(CCC(=O)OC)=C2C)NC1=O [BVMe2, biliverdin dimethylester, reference compound]	≤ 2.5 µM											
phycocyanobilin [PCB, reference compound]		≥ 40 µM										
R5-2: evolved APCα FP, SEQ ID NO: 6, with BV (protein, biliverdin chromophore; smRUFP Variant Polypeptide) MKTCEQRVKIATLLSENEKKIVDKASQDLWRRRPDFIAPGGIAFSQRERALCLRDHRWYLHLITFCLLAGDKDPIESIGLIGIREMYNSLGVPVPGMMESIRCLKEASLSLLDEEDAKETAPYFDYIIKAMS			71,000 M^−1cm^−1	5.3%	~49 nm	12%	696 nm	671 nm	71,000 M^−1 cm^−1	5.3%		
R6-6: evolved APCα FP, SEQ ID NO: 7, with BV (protein, biliverdin chromophore; smRUFP Variant Polypeptide) MKTCEQRVKIATLLSENEKKIVDKASQDLWRRRPDLIAPGGIAFSQRERALCLRDYGWYLHLITFCLLAGDKGPIESIGLIGIREMYNSLGVPVPGMMESIRCLKEASLSLLDEEDAKETAPYFDYIIKAMS			190,000 M^−1cm^−1	9.6%		56%	676 nm	648 nm	190,000 M^−1 cm^−1	9.6%		
TeAPCα: Trichodesmium erythraeum allophycocyanin α-subunit, nonfluorescent parent protein, SEQ ID NO: 1 (protein, smRUFP Variant Polypeptide) MKTGEQRVKIATLLSENEKKIVDKASQDLWRRRPDFIAPGGNAFGQRERALCLRDYGWYLRLITYGLLAGDKDPIESIGLIGVREMYNSLGVPVPGMVESIRCLKEASLSLLDEEDAKETAPYFDYIIQAMS											showed no fluorescence	
R2-1 + PCB: evolved APCα FP, SEQ ID NO: 3, with PCB (protein, phycocyanobilin chromophore; smRUFP Variant Polypeptide) MKTGEQRVKIATLLSENEKKIVDKASQDLWRRRPDFIAPGGIAFGQRERALCLRDYGWYLRLITFCLLAGDKDPIESIGLIGVREMYNSLGVPVPGMVESIRCLKEASLSLLDEEDAKETAPYFDYIIQAMS			65,000 M^−1cm^−1	7.2%		14%	648 nm	626 nm	65,000 M^−1 cm^−1	7.2%	lacked fluorescence with BV	27 fold
